From patent US20220325265A1, “GLUCOCEREBROSIDASE MUTANTS” (Hoffmann-la Roche Inc., priority 2019, published 2022)
Values joined by “and” are separate entries in the source; they are usually repeats but may differ in a detail not shown here. Equal entries are not always repeated.

Key:
[1] = Determination of the kinetic parameters (Michaelis-Menten) with artificial substrate; type: biochemical; details: for kcat: protein concentration used: 25 nM; for Km / Vmax: res-β-glc 4-500 μM, 25 nM protein
Experimental: The kinetic parameters were examined using the artificial substrate resorufin-β-glucopyranoside (Sigma-Aldrich). For the determination, final concentrations of substrate ranging from 4-500 μM were tested. The assay followed the activity assay instructions in section 2.3.5. 25 nM final protein concentration was used for each construct. The incubation time was set to 30 min to ensure measurements in the linear signal range. The kinetics were evaluated and plotted according to Michaelis-Menten (Cornish-Bowden, 2013; Johnson, 2015). KM, Vmax was calculated by GraphPad Prism7 applying the Michaelis-Menten fit equation provided by the program. The equation model follows: […]
with: • KM: Michaelis-Menten constant [μM] • Vmax: maximum velocity of reaction [μM/min]
The kinetic parameter kcat is defined as the catalytic constant, representing the turnover number of substrate to product per time unit (here per second) (Eisenthal et al., 2007). kcat can be calculated as follows: […]
with: • kcat: turnover number [min-1] • Vmax: maximum velocity of reaction [μM/min] • [E]tot.: total enzyme concentration [nM]
Another kinetic key parameter to describe the catalytic efficiency of enzymes is the parameter kcat/KM, measured in [μM−1*s−1] in this work (Eisenthal et al., 2007).
Determining enzyme kinetic key parameters gives solid information about the efficiency and efficacy of an enzyme and how certain mutations can impact its functionality. For the determination and comparison of the enzymatic performances, KM, Vmax and kcat as well as kcat/KM were calculated for the different hGCase variants, respectively (Eisenthal et al., 2007). The according assay was performed as described in section 2.5.5, all measured with the artificial substrate res-3-glc. KM and Vmax determination for representative mutant M53T/P55T was done applying the Michaelis-Menten curve fit (GraphPad Prism7; see equation 4) as shown in the following.
The kinetic raw data is depicted in FIG. 5 (A) with progression curves following pseudo first order in a linear measurement range with a good reproducibility and low variance. The slopes of the progression curves can be replotted, with velocities V [μM/min] plotted as a function of substrate concentration [S] applied, resulting in a typical course of a Michaelis-Menten curve (Cornish-Bowden, 2013; Johnson, 2015).

[2] = target: hGCase; experiment: Inhibition of hGCase using conditurol-β-epoxide (CBE), IC50 determination; type: biochemical, human; details: irreversible inhibitor conditurol-β-epoxide on the named hGCase variant; 25 nM protein, 10 min pre-incubation, 20 μM res-β-glc
Experimental: CBE is an irreversible inhibitor of glucocerebrosidases which covalently binds to the active site of the enzyme (Liou et al., 2006).
A stock solution of 100 mM CBE in H2Oultrapure was prepared. For IC50 determination, CBE concentrations ranging from 0.04-2500 μM were tested. Again, the final enzyme concentration was 25 nM. After adding the inhibitor, the enzyme was pre-incubated for 10 min before initializing the activity measurement by adding the substrate (20 μM).
IC50 evaluations were done in the same manner as described for IFG (see section above). The IC50 calculations were done using GraphPad Prism7 following equation 9.
To determine whether the active binding site of an enzyme is compromised or altered, IC50 values were calculated for active site inhibitor and compared. In this work, the natural occurring GCase inhibitor isofagomine (IFG) and conditurol-β-epoxide (CBE) were used. IFG is known as a reversible inhibitor, interacting with the active site of the GCase enzyme, whereas CBE is an irreversible inhibitor of GCase (Powe et al., 2006). The IC50 of an enzyme is defined as the concentration of an inhibitor, where the response, in this case the enzyme activity, is reduced by half (Kalliokoski et al., 2013). Both assays were conducted as described in section 2.5.6. The inhibitor profiles of M53T/P55T using IFG and CBE as well as the IC50 profiles of all residual mutants combined are shown in FIG. 4.
The raw data was plotted by transforming the applied IFG/CBE concentration to a logarithmic scale (x-axis, FIG. 4) and by normalizing the activity signal with highest signal of each data set to 100% (defined with apparent inhibitor concentration of 10-12 μM, equal to no inhibitor). IC50 values were calculated using GraphPad Prism7 following equation 9.

[3] = Heat inactivation at 55° C., residual GCase activity of purified protein; type: physicochemical; details: for residual GCase activity after heat inactivation: 55° C. waterbath, 50 nM protein, initial activity = 100%
Experimental: For all further GCase characterization experiments including the activity assay, 20 μM substrate concentration, 30-40 min incubation time and protein concentrations ranging from 25-100 nM were set as final assay settings to ensure measurements in the linear range. The overall DMSO concentration within the assay was kept at 0.5% (v/v) or even below, since DMSO influences the fluorescent signal with higher concentrations (experimentally tested, data not shown; confirmed by (Urban et al., 2008). Therefore, GCase activity buffer+1% (v/v) DMSO was also used for dilutions (table 2.9). The plate reader SpectraMax i3 (Molecular Devices) including the analysis software SoftMax Pro 6.4 was used for all activity measurements within this work. The program settings were kept the same for all activity runs: kinetic run, measurement temperature: 37° C., PMT Gain: high; flashes per read: 6; read height: 0.73305 mm from plate.
Another approach to test the mutants for thermal stability is the irreversible heat inactivation at 55° C. (Futami et al., 2017; Zale & Klibanov, 1986). As initial screening to select for most promising candidates, this thermal stability approach was chosen (section 3.1.1). For this, supernatant samples of each construct were taken from the 30 ml S2 cell cultures, respectively (section 2.2). The protein concentration was not adjusted. The samples were incubated for 40 min in total at 55° C. (PCR Cycler Mastercycler gradient, Eppendorf) using PCR plates (FrameStar®96 well skirted PCR plate, 4titude Ltd.). Samples were taken after 5, 7, 10, 15, 20, 30 and 40 min for residual activity measurements. The activity assay was performed as described in section 2.3.5. The initial activity of each mutant was set to 100% before heating. Residual activities were calculated in regard to the initial activity. Data points were fitted using the one phase decay fit by GraphPad Prism7 following equation 3: […]
For the heat inactivation experiment of purified protein (see section 3.3.3), hGCase protein samples were prepared with a final concentration of 50 nM, diluted in hGCase activity buffer, pH 6.0 (table 2.9) and incubated for 5 and 10 minutes in the waterbath (Julabo 5A, Julabo) at 55° C.
The second approach was aimed to test residual GCase activity after thermal inactivation at a fixed temperature. With this additional approach, the focus was set on activity-based changes with increased incubation time (Futami et al., 2017; Zale & Klibanov, 1986). Here, samples were incubated for 5 and 10 minutes in the waterbath at 55° C. Residual GCase activities were measured with the initial activity set to 100% (before heating). FIG. 2 depicts calculated residual activities for tested mutants after incubation.

| IC50 [2] | Molecule | kcat [1] [s⁻¹] | Km [1] [µM] | Vmax [1] | residual GCase activity after heat inactivation ([3]; 5 min incubation) [%] | residual GCase activity after heat inactivation ([3]; 10 min incubation) [%] | residual activities after 5 and 10 min of incubation (in words) ([3]; 55° C., compared to R495HS2) |
| --- | --- | --- | --- | --- | --- | --- | --- |
| ~76 µM and 76 µM | M53T/P55T: recombinant human β-glucocerebrosidase variant R495H/M53T/P55T, S2 cells; Seq. Id. No. 7 (protein, listed as Homo sapiens, recombinant human β-glucocerebrosidase variant R495H/M53T/P55T, S2 cells; Id; No. 7) ARPCIPKSFGYSSVVCVCNATYCDSFDPPTFPALGTFSRYESTRSGRRMELSTGTIQANHTGTGLLLTLQPEQKFQKVKGFGGAMTDAAALNILALSPPAQNLLLKSYFSEEGIGYNIIRVPMASCDFSIRTYTYADTPDDFQLHNFSLPEEDTKLKIPLIHRALQLAQRPVSLLASPWTSPTWLKTNGAVNGKGSLKGQPGDIYHQTWARYFVKFLDAYAEHKLQFWAVTAENEPSAGLLSGYPFQCLGFTPEHQRDFIARDLGPTLANSTHHNVRLLMLDDQRLLLPHWAKVVLTDPEAAKYVHGIAVHWYLDFLAPAKATLGETHRLFPNTMLFASEACVGSKFWEQSVRLGSWDRGMQYSHSIITNLLYHVVGWTDWNLALNPEGGPNWVRNFVDSPIIVDITKDTFYKQPMFYHLGHFSKFIPEGSQRVGLVASQKNDLDAVALMHPDGSAVVVVLNRSSKDVPLTIKDPAVGFLETISPGYSIHTYLWHRQ | 0.09 | 100 ± 15.8 | 0.13 ± 0.01 µM/min and 0.13 µM/min | 65 | 27 |  |
| 106 µM | L34Q: recombinant human β-glucocerebrosidase variant R495H/L34Q, S2 cells; Seq. Id. No. 6 (protein, listed as Homo sapiens, recombinant human β-glucocerebrosidase variant R495H/L34Q, S2 cells; Id; No. 6) ARPCIPKSFGYSSVVCVCNATYCDSFDPPTFPAQGTFSRYESTRSGRRMELSMGPIQANHTGTGLLLTLQPEQKFQKVKGFGGAMTDAAALNILALSPPAQNLLLKSYFSEEGIGYNIIRVPMASCDFSIRTYTYADTPDDFQLHNFSLPEEDTKLKIPLIHRALQLAQRPVSLLASPWTSPTWLKTNGAVNGKGSLKGQPGDIYHQTWARYFVKFLDAYAEHKLQFWAVTAENEPSAGLLSGYPFQCLGFTPEHQRDFIARDLGPTLANSTHHNVRLLMLDDQRLLLPHWAKVVLTDPEAAKYVHGIAVHWYLDFLAPAKATLGETHRLFPNTMLFASEACVGSKFWEQSVRLGSWDRGMQYSHSIITNLLYHVVGWTDWNLALNPEGGPNWVRNFVDSPIIVDITKDTFYKQPMFYHLGHFSKFIPEGSQRVGLVASQKNDLDAVALMHPDGSAVVVVLNRSSKDVPLTIKDPAVGFLETISPGYSIHTYLWHRQ | 0.11 | 143 | 0.17 ± 0.01 µM/min and 0.17 µM/min |  | ~27 |  |
| 60 ± 3 µM | imiglucerase (protein, UniProt P04062 40-536, looked up, variant R495H, imiglucerase; CHO-produced, Commercially available Cerezyme (imiglucerase, Genzyme), hGCase R495H produced in CHO cells) Lysosomal acid …: ARPCIPKSFGYSSVVCVCNATYCDSFDPPTFPALGTFSRYESTRSGRRMELSMGPIQANHTGTGLLLTLQPEQKFQKVKGFGGAMTDAAALNILALSPPAQNLLLKSYFSEEGIGYNIIRVPMASCDFSIRTYTYADTPDDFQLHNFSLPEEDTKLKIPLIHRALQLAQRPVSLLASPWTSPTWLKTNGAVNGKGSLKGQPGDIYHQTWARYFVKFLDAYAEHKLQFWAVTAENEPSAGLLSGYPFQCLGFTPEHQRDFIARDLGPTLANSTHHNVRLLMLDDQRLLLPHWAKVVLTDPEAAKYVHGIAVHWYLDFLAPAKATLGETHRLFPNTMLFASEACVGSKFWEQSVRLGSWDRGMQYSHSIITNLLYHVVGWTDWNLALNPEGGPNWVRNFVDSPIIVDITKDTFYKQPMFYHLGHFSKFIPEGSQRVGLVASQKNDLDAVALMHPDGSAVVVVLNRSSKDVPLTIKDPAVGFLETISPGYSIHTYLWHRQ | 0.09 | 131 | 0.14 µM/min |  |  | rapidly lose its initial activity but retained residual activity with further incubation |
| 60 ± 3 µM | F31Y: recombinant human β-glucocerebrosidase variant R495H/F31Y, S2 cells; Seq. Id. No. 5 (protein, listed as Homo sapiens, recombinant human β-glucocerebrosidase variant R495H/F31Y, S2 cells; Id; No. 5) ARPCIPKSFGYSSVVCVCNATYCDSFDPPTYPALGTFSRYESTRSGRRMELSMGPIQANHTGTGLLLTLQPEQKFQKVKGFGGAMTDAAALNILALSPPAQNLLLKSYFSEEGIGYNIIRVPMASCDFSIRTYTYADTPDDFQLHNFSLPEEDTKLKIPLIHRALQLAQRPVSLLASPWTSPTWLKTNGAVNGKGSLKGQPGDIYHQTWARYFVKFLDAYAEHKLQFWAVTAENEPSAGLLSGYPFQCLGFTPEHQRDFIARDLGPTLANSTHHNVRLLMLDDQRLLLPHWAKVVLTDPEAAKYVHGIAVHWYLDFLAPAKATLGETHRLFPNTMLFASEACVGSKFWEQSVRLGSWDRGMQYSHSIITNLLYHVVGWTDWNLALNPEGGPNWVRNFVDSPIIVDITKDTFYKQPMFYHLGHFSKFIPEGSQRVGLVASQKNDLDAVALMHPDGSAVVVVLNRSSKDVPLTIKDPAVGFLETISPGYSIHTYLWHRQ | 0.07 | 96.6 | 0.11 µM/min |  | ~27 |  |
